Laboratory results taken from patent publication US20240270821A1, “GIP/GLP1/GCG TRI-RECEPTOR AGONISTS AND USES THEREOF” (priority 2023, published 2024).
Changes are numbered by the printed parent chain. Starred links: 1 amine or outer side, 2 acyl side, 3 side chain; linkers in the order of their positions; H or OH if unused. Non-standard residues stand in square brackets, D forms with d. Groups on a side chain read outwards from the residue. No end group written: not given here. *: point of attachment. C20 diacid = O=C(O)CCCCCCCCCCCCCCCCCCC(=O)*; αMePhe(2-F) = C[C@](N)(Cc1ccccc1F)C(=O)O; γGlu = O=C(O)[C@H](CCC(=O)[*:2])N[*:1]; NMeY = CN[C@@H](Cc1ccc(O)cc1)C(=O)O; αMeF = C[C@](N)(Cc1ccccc1)C(=O)O; αMeL = CC(C)C[C@](C)(N)C(=O)O; Orn = NCCC[C@H](N)C(=O)O; AEEA = NCCOCCOCC(=O)O; Aib = CC(C)(N)C(=O)O

T1: human GIP receptor (human) (UniProt P48546)
T1 sequence (looked up): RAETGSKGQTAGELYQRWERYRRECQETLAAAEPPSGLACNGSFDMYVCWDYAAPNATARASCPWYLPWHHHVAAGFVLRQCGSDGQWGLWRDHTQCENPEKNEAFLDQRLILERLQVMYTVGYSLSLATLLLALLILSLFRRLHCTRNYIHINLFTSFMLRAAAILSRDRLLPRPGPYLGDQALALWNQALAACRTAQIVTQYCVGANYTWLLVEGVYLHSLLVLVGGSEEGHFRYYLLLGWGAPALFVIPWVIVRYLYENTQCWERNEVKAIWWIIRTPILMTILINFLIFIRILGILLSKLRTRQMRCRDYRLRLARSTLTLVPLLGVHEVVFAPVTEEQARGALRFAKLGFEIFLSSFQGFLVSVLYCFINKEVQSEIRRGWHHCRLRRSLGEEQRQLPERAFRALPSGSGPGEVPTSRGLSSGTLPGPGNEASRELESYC

B1: Example 496 (peptide)
chain: YXQGTFTSDFSXXLDKKAQXAFIEXLLEGGPSSGAPPPGGS
modifications: synthetic construct; SITE 2: note = 2-Aminoisobutyric Acid; SITE 12: note = L-ornithine; SITE 13: note = alpha-methyl-leucine; SITE 17: note = Lysine is chemically modified through conjugation of the epsilon-amino group of the Lysine side chain with (2-[2-(2-Amino-ethoxy)-ethoxy]-acetyl)-(gamma-Glu)
B2: Example 454 (peptide)
chain: YXQGTXTSDXSILLDXIAQXAFIKYLEEGGPSSGAPPPS
modifications: synthetic construct; SITE 2: note = 2-Aminoisobutyric Acid; SITE 6: note = alpha-methyl-2-fluoro-L-phenylalanine; SITE 10: note = 3-(4-Pyridyl)-L-alanine; SITE 16: note = L-ornithine; SITE 20: note = 2-Aminoisobutyric Acid; SITE 24: note = Lysine is chemically modified through conjugation of the eps
B3: Example 455 (peptide)
chain: B2 chain with X10Y, L13X, X16K
modifications: synthetic construct; SITE 2: note = 2-Aminoisobutyric Acid; SITE 6: note = alpha-methyl-2-fluoro-L-phenylalanine; SITE 13: note = alpha-methyl-leucine; SITE 20: note = 2-Aminoisobutyric Acid; SITE 24: note = Lysine is chemically modified through conjugation of the epsilon-amino group of the Lysine s
B4: Example 287 (peptide)
chain: YXQGTFTSDXSKXLDKKAQXAFIEYLIAXGESSGEPPPSGS
modifications: synthetic construct; SITE 2: note = 2-Aminoisobutyric Acid; SITE 10: note = 3-(4-Pyridyl)-L-alanine; SITE 13: note = alpha-methyl-leucine; SITE 17: note = Lysine is chemically modified through conjugation of the epsilon-amino group of the Lysine side chain with (2-[2-(2-Amino-ethoxy)-ethoxy]-acetyl)
B5: Example 650 (SEQ ID NO: 656) (peptide)
chain: YXQGTXTSDXSIXLDKKAQXXFIEYLAEGGPSSGEPPPEGSEE
modifications: synthetic construct; SITE 2: note = 2-Aminoisobutyric Acid; SITE 6: note = alpha-methyl-2-fluoro-L-phenylalanine; SITE 10: note = 3-(4-Pyridyl)-L-alanine; SITE 13: note = alpha-methyl-leucine; SITE 17: note = Lysine is chemically modified through conjugation of the epsilon-amino group of the Lysine
B6: Example 651 (SEQ ID NO: 657) (peptide)
chain: B5 chain with A27S
modifications: synthetic construct; SITE 2: note = 2-Aminoisobutyric Acid; SITE 6: note = alpha-methyl-2-fluoro-L-phenylalanine; SITE 10: note = 3-(4-Pyridyl)-L-alanine; SITE 13: note = alpha-methyl-leucine; SITE 17: note = Lysine is chemically modified through conjugation of the epsilon-amino group of the Lysine
B7: Example 292 (peptide)
chain: YXQGTXTSDYSKXLDKKAQXQFIEYLEEGGPSSGEPPPSEG
modifications: synthetic construct; SITE 2: note = 2-Aminoisobutyric Acid; SITE 6: note = alpha-methyl-2-fluoro-L-phenylalanine; SITE 13: note = alpha-methyl-leucine; SITE 17: note = Lysine is chemically modified through conjugation of the epsilon-amino group of the Lysine side chain with (2-[2-(2-Amino-ethoxy)-et)

Experiments:
Assay in all cases: cell-based or functional assay
hGLP-1R = hGLP-1R (Homo sapiens, UniProt P43220)
hGLP-1R, sequence (P43220 24-463): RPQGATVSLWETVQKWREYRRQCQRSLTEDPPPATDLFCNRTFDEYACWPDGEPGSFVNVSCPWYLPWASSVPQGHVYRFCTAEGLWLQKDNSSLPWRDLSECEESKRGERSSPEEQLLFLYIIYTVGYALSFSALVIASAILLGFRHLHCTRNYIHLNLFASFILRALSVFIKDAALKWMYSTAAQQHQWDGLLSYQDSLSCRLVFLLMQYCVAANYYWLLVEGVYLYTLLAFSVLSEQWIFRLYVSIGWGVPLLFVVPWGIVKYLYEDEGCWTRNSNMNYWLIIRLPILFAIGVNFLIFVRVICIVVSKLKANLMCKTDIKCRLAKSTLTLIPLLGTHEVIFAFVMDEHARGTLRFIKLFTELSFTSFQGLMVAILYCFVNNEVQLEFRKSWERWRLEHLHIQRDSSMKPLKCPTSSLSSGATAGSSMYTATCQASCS

[1] = molecular target: T1, human GIP receptor (human)
[2] = molecular target: human glucagon receptor (human) (UniProt P47871)
human glucagon receptor (human), sequence (P47871 26-477): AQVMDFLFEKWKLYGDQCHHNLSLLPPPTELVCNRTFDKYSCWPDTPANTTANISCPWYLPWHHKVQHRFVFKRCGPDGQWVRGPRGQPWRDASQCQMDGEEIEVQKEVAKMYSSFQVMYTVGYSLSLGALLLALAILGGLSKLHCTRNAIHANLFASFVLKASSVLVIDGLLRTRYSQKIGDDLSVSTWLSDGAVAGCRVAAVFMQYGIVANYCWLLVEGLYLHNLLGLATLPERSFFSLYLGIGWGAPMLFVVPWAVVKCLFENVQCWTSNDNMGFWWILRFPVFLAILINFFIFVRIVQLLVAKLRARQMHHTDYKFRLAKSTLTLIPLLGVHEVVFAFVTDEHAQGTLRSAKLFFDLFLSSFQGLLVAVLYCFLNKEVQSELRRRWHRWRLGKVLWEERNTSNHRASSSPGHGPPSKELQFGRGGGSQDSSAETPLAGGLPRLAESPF

Binder | Relative cAMP EC50 (hGLP-1R) | cAMP Rel EC50 (1% HSA) (hGLP-1R) | Relative cAMP EC50 [1] | cAMP Rel EC50 (1% HSA) [1] | Relative cAMP EC50 [2] | cAMP Rel EC50 (1% HSA) [2] | Relative cAMP EC50, nM (0.1% casein) (hGLP-1R) | Relative cAMP EC50, nM (0.1% casein) [1] | Relative cAMP EC50, nM (0.1% casein) [2] | cAMP Rel EC50 (in the presence of 1% HSA) (hGLP-1R) | cAMP Rel EC50 (in the presence of 1% HSA) [1] | cAMP Rel EC50 (in the presence of 1% HSA) [2]
Y[Aib]QGTFTSDYSI[αMeL]LDKQAAK([AEEA-AEEA-γGlu-C20 diacid])QFIEWLIEGGPSSGEPPPGEG-NH2 [Example 318] | 0.698 nM | 111 nM | 0.378 nM | 52.8 nM | 5.03 nM | 1970 nM |  |  |  |  |  | 
Y[Aib]QGTFTSDYSKLLDKK([AEEA-γGlu-C20 diacid])AQ[Aib]AFVQWLIEGGPSSGEPPPSEG-NH2 [Example 316] | 0.362 nM | 78.7 nM | 0.259 nM | 102 nM | 5.22 nM | 2090 nM |  |  |  |  |  | 
Y[Aib]QGTFTSDYSI[αMeL]LDKQAAK([AEEA-AEEA-γGlu-C20 diacid])AFVEWLLA[Aib]GPSSGEPPPSEG-NH2 [Example 317] | 1.32 nM | 234 nM | 0.474 nM | 62.8 nM | 2.42 nM | 1500 nM |  |  |  |  |  | 
B1 |  |  |  |  |  |  | 9.69 nM | 0.387 nM | 8.25 nM |  |  | 
B2 |  |  |  |  |  |  | 0.821 nM | 0.0154 nM | 9.11 nM |  |  | 
B3 |  |  |  |  |  |  | 0.49 nM | 0.0182 nM | 4.36 nM |  |  | 
B4 | 4.25 nM |  | 0.0633 nM |  | 2.53 nM |  |  |  |  | 562 nM | 9.94 nM | 291 nM
Y[Aib]QGT[αMePhe(2-F)]TSDYSKLLDKIAQK([AEEA-γGlu-C20 diacid])[Orn]FIEWLIEGGPSSGEPPPSEG-NH2 [Example 310] | 0.586 nM | 177 nM | 0.0939 nM | 15 nM | 3.52 nM | 4000 nM |  |  |  |  |  | 
B5 | 0.649 nM |  | 0.0814 nM |  | 16.2 nM |  |  |  |  |  |  | 
B6 | 1.02 nM |  | 0.112 nM |  | 10.7 nM |  |  |  |  |  |  | 
Y[Aib]QGTFTSDYSI[αMeL]LDKQAAK([AEEA-AEEA-γGlu-C20 diacid])QFVNWLLA[Aib]GPSSGEPPPSEG-NH2 [Example 325] | 1.56 nM | 371 nM | 0.351 nM | 82.7 nM | 2.43 nM | 774 nM |  |  |  |  |  | 
[NMeY][Aib]QGT[αMeF]TSDYSILLDKIAAKAFIEYLIEGGPSSGEPPPSEG-NH2 (not fully specified (residue 20)) [Example 299] | 0.963 nM | 380 nM | 0.137 nM | 40.2 nM | 2.54 nM | 1700 nM |  |  |  |  |  | 
B7 | 1.03 nM |  | 1.02 nM |  | 1.84 nM |  |  |  |  | 129 nM | 92.7 nM | 583 nM
Y[Aib]QGTFTSDYSI[αMeL]LDKQAAK([AEEA-AEEA-γGlu-C20 diacid])QFVEWLIA[Aib]GPSSGEPPPSEG-NH2 [Example 326] | 0.555 nM | 172 nM | 0.3 nM | 83.7 nM | 5.34 nM | 1500 nM |  |  |  |  |  | 
Y[Aib]QGTFTSDYSI[αMeL]LDKQAAK([AEEA-AEEA-γGlu-C20 diacid])QFVEWLLA[Aib]GPSSGAPPPSEG-NH2 [Example 327] | 1.61 nM | 473 nM | 0.312 nM | 63.3 nM | 3.04 nM | 1400 nM |  |  |  |  |  | 
Y[Aib]QGTFTSDYSK[αMeL]LDKK([AEEA-γGlu-C20 diacid])AQQAFIEYLIAGGPSSGAPPPSSE-NH2 [Example 322] | 0.394 nM | 135 nM | 0.264 nM | 89.3 nM | 5.41 nM | 2620 nM |  |  |  |  |  | 
Y[Aib]QGT[αMePhe(2-F)]TSDYSILLDKAAQK[Orn]FIEYLIEGGPSSGEPPPSEG-NH2 (not fully specified (residue 20)) [Example 306] | 0.335 nM | 126 nM | 0.142 nM | 95.3 nM | 5.8 nM | 2820 nM |  |  |  |  |  | 
Y[Aib]QGTFTSDYSI[αMeL]LDKK([AEEA-γGlu-C20 diacid])AQRAFIEYLLEGGPSSGEPPPSG-NH2 (N-terminus assumed; SMILES CC[C@H](C)[C@H](NC(=O)[C@H](Cc1ccccc1)NC(=O)[C@H](C)NC(=O)[C@H](CCCNC(=N)N)NC(=O)[C@H](CCC(N)=O)NC(=O)[C@H](C)NC(=O)[C@H](CCCCNC(=O)COCCOCCNC(=O)CC[C@H](NC(=O)CCCCCCCCCCCCCCCCCCC(=O)O)C(=O)O)NC(=O)[C@H](CCCCN)NC(=O)[C@H](CC(=O)O)NC(=O)[C@H](CC(C)C)NC(=O)[C@](C)(CC(C)C)NC(=O)[C@@H](NC(=O)[C@H](CO)NC(=O)[C@H](Cc1ccc(O)cc1)NC(=O)[C@H](CC(=O)O)NC(=O)[C@H](CO)NC(=O)[C@@H](NC(=O)[C@H](Cc1ccccc1)NC(=O)[C@@H](NC(=O)CNC(=O)[C@H](CCC(N)=O)NC(=O)C(C)(C)NC(=O)[C@@H](N)Cc1ccc(O)cc1)[C@@H](C)O)[C@@H](C)O)[C@@H](C)CC)C(=O)N[C@@H](CCC(=O)O)C(=O)N[C@@H](Cc1ccc(O)cc1)C(=O)N[C@@H](CC(C)C)C(=O)N[C@@H](CC(C)C)C(=O)N[C@@H](CCC(=O)O)C(=O)NCC(=O)NCC(=O)N1CCC[C@H]1C(=O)N[C@@H](CO)C(=O)N[C@@H](CO)C(=O)NCC(=O)N[C@@H](CCC(=O)O)C(=O)N1CCC[C@H]1C(=O)N1CCC[C@H]1C(=O)N1CCC[C@H]1C(=O)N[C@@H](CO)C(=O)NCC(N)=O) [Example 313] | 0.304 nM | 135 nM | 0.49 nM | 86.4 nM | 4.11 nM | 3290 nM |  |  |  |  |  | 
Y[Aib]QGTFTSDYSK[αMeL]LDKK([AEEA-γGlu-C20 diacid])AQQAFIQWLIEGGPSSGEPPPSEG-NH2 [Example 314] | 0.274 nM | 100 nM | 0.345 nM | 65.9 nM | 3.7 nM | 1030 nM |  |  |  |  |  | 
Y[Aib]QGT[αMePhe(2-F)]TSDYSKLLDEIAQKAFIEYLLEGGPSSGEPPPSEG-NH2 (not fully specified (residue 20)) [Example 303] | 1.13 nM | 257 nM | 0.116 nM | 44.7 nM | 6.1 nM | 9950 nM |  |  |  |  |  | 
Y[Aib]QGTFTSDYSI[αMeL]LDKIAAK([AEEA-AEEA-γGlu-C20 diacid])QFVEYLIAGGPSSGEPPPSEG-NH2 [Example 312] | 2.66 nM | 589 nM | 0.504 nM | 97.7 nM | 7.5 nM | 4070 nM |  |  |  |  |  | 
Y[Aib]QGTFTSDYSI[αMeL]LDKIAAK([AEEA-AEEA-γGlu-C20 diacid])QFVEWLLA[Aib]GPSSGEPPPSEG-NH2 [Example 324] | 4.4 nM | 1060 nM | 0.164 nM | 20.7 nM | 5.74 nM | 1410 nM |  |  |  |  |  | 
Y[Aib]QGTFTSDYSI[αMeL]LD[Orn]QAAK([AEEA-AEEA-γGlu-C20 diacid])QFVEWLLA[Aib]GPSSGEPPPSEG-NH2 [Example 328] | 1.3 nM | 462 nM | 0.544 nM | 91.1 nM | 10.3 nM | 2040 nM |  |  |  |  |  | 
Y[Aib]QGTFTSDYSI[αMeL]LDKQAAK([AEEA-AEEA-γGlu-C20 diacid])QFVEWLLAGGPSSGEPPPGEG-NH2 [Example 320] | 2.58 nM | 328 nM | 0.274 nM | 55.3 nM | 6.87 nM | 1170 nM |  |  |  |  |  | 
Y[Aib]QGTFTSDYSI[αMeL]LDKQAAK([AEEA-AEEA-γGlu-C20 diacid])QFIEWLIEGGPSSGEPPPGAE-NH2 [Example 319] | 0.947 nM | 119 nM | 0.485 nM | 60.1 nM | 4.81 nM | 1650 nM |  |  |  |  |  | 
